Experimental data published in US9005963B2, “Amino acid sequences directed against cellular receptors for viruses and bacteria” (Ablynx N.V., priority 2008, dated 2015).
Marks after values point to notes of the source that are not given here.

How the values were obtained:
[1] = biological target: T1, CXCR4 (Homo sapiens, UniProt P61073); assay: Binding of 125I-labeled Nanobodies to membranes from HEK293T cells expressing CXCR4 compared to CXCR3; parameters: expressed in transfected cells; host or cells: HEK293T, transient (pcDNA3.1-CXCR4)
T1 sequence (P61073 whole entry): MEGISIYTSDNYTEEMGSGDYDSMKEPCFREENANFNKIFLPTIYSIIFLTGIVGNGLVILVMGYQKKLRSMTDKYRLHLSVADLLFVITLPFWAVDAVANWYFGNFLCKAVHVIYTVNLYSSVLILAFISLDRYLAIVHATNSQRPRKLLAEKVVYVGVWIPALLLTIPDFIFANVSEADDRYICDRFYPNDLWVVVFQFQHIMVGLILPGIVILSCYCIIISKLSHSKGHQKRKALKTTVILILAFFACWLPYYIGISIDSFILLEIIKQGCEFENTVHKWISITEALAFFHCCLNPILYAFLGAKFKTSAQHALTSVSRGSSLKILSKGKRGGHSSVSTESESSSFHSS
Protocol: (§1) Membranes from HEK293T cells transiently expressing CXCR3 or CXCR4 were prepared 48 h after transfection as follows. Cells were washed and scraped from the cell culture dishes with ice-cold PBS containing 1 mm EDTA. The scraped cells were pelleted at 1500×g for 10 min at 4° C. The pellet was washed and then resuspended in ice-cold membrane buffer (15 mM Tris, pH 7.5, 1 mM EGTA, 0.3 mM EDTA, and 2 mM MgCl2). The cell suspension was homogenized by 10 strokes at 1200 rpm using a Teflon-glass homogenizer and rotor and further subjected to three freeze-thaw cycles using liquid nitrogen. Membranes were separated by centrifugation at 40,000 g for 25 min at 4° C. The membrane pellet was washed and resuspended in ice-cold Tris-sucrose buffer (20 mM Tris, pH 7.4, and 250 mM sucrose) and frozen in liquid nitrogen. The total protein was determined using a Bradford assay (Bio-Rad).
Periplasmas (1:10) or ligands were pre-incubated with membranes in binding buffer (50 mM HEPES (pH 7.4), 1 mM CaCl2, 5 mM MgCl2, 100 mM NaCl, 0.5% bovine serum albumin) supplemented with 0.5% BSA for 1 h at 22° C. before the addition of [^125I]-CXCL12 (40 pM) or [^125I]-238D2 (3 nM) or [^125I]-238D4 (3 nM) for additional 2 h at 22° C. […] Plates were counted by liquid scintillation.

[2] = biological target: T1, CXCR4; assay: Competition binding with [125I]-CXCL12 on membranes from HEK293T cells transiently expressing CXCR4; parameters: expressed in transfected cells; host or cells: HEK293T, transient (pcDNA3.1-CXCR4); conditions: for pKi ([125I]-CXCL12): HEK293T-CXCR4 membranes; for Rel. potency, relative to monovalent 238D2: [125I]-CXCL12 displacement affinity, fold; for Displacem. (%) of [125I]-CXCL12: maximal displacement, a: no significant displacement at 0.5 μM, b/c(B-6): maximum not reached, displacement at 0.5 μM
Protocol: as §1
Membranes were then harvested over polyethylenimine (0.5%)-treated Whatman GF/C filter plates and washed three times with ice cold binding buffer containing 500 mM NaCl. Plates were counted by liquid scintillation. […]

Molecule | binding to CXCR4 membranes compared to CXCR3 membranes [1] | pKi ([125I]-CXCL12) [2] | Rel. potency, relative to monovalent 238D2 [2] | Displacem. (%) of [125I]-CXCL12 [2]
[^125I]-238D2: 125I-labeled NANOBODY 238D2 for competition binding studies (protein) VHH: EVQLVESGGGLVQTGGSLRLSCAASGFTFSSYAMSWVRQAPGKGLEWVSGIKSSGDSTRYAGSVKGRFTISRDNAKNMLYLQMYSLKPEDTAVYYCAKSRVSRTGLYTYDNRGQGTQVTVSS | selectively bound |  |  | 
[^125I]-238D4: 125I-labeled NANOBODY 238D4 for competition binding studies (protein) VHH: EVQLMESGGGLVQAGGSLRLSCAASGRTFNNYAMGWFRRAPGKEREFVAAITRSGVRSGVSAIYGDSVKDRFTISRDNAKNTLYLQMNSLKPEDTAVYTCAASAIGSGALRRFEYDYSGQGTQVTVSS | selectively bound |  |  | 
238D2-20GS-238C5: bivalent Nanobody, SEQ ID NO: 265 (protein, Nanobodies) EVQLVESGGGLVQTGGSLRLSCAASGFTFSSYAMSWVRQAPGKGLEWVSGIKSSGDSTRYAGSVKGRFTISRDNAKNMLYLQMYSLKPEDTAVYYCAKSRVSRTGLYTYDNRGQGTQVTVSSGGGGSGGGGSGGGGSGGGGSEVQLMESGGGLVQAGGSLRLACAASGFTFEDYAIGWFRKAPGKEREGVSCISGSDGSTTYADSVKGRFTISTDNAKNTVYLEMNSLKPEDTAVYYCAQQYGVGGRVVCPGPYEYDVWGQGTQVTVSS |  | 7.35 ± 0.07 | 0.18^a | 110 ± 2%
238D2-20GS-238B10: bivalent Nanobody, SEQ ID NO: 266 (protein, Nanobodies) EVQLVESGGGLVQTGGSLRLSCAASGFTFSSYAMSWVRQAPGKGLEWVSGIKSSGDSTRYAGSVKGRFTISRDNAKNMLYLQMYSLKPEDTAVYYCAKSRVSRTGLYTYDNRGQGTQVTVSSGGGGSGGGGSGGGGSGGGGSEVQLVESGGGFVQAGGSLRLSCETSGRPLLGYTIAWFRQVPGKEREFVAYHRWSDGANLYADSVKGRFTISGHNAKNTVSLQMNSLKPEDTAVYYCAAARMTTSNDKEYLYWGQGTQVTVSS |  | <7.00 | <0.1^a | 43 ± 11^c %
